Assay: soluble fraction after stress (log2 fold change); higher = more stays soluble; pooled small domains, quantitative proteomics
Details: stress: 50 degC
Procedure, shortened: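 Quantitative proteomics served as the high-throughput read-out for pooled custom libraries of small protein domains. Each was stressed at 50°C. Aggregation propensity is expressed as the base-two log fold change in soluble protein after stress. A higher value means a larger share of the protein remains in solution.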

Sequence	soluble fraction (log2)
HMKDSKSALQEYALERKMGLPVYEVVDRSGPDHAPQFVIAVSLGEWRLEAKGASKRQAEQQAASLMLEEI	-0.353
HMQTTEDMEINAKVDEYLREMYLWNDEYKTLNLDHNKGYEDFFYDALGSMTTNTLDKKTYVGSDGKTYYNL	-0.248
HMIMEVDYGTFMKMTEENAIGRVQMDSTEIIFTDKENTQVYSTGIMYDPDLTQRLYDAGAVFA	-0.986
HMRKLDQRLAGLLLGKGRLVKATHQQLADELGSVREMVSRLLKGFAEHDLVRMSREQIEIVDAAGLRKLAD	-1.33
HMEIFYSARAWAKLNDLVATRTYLQHLGAIAGRIGRSEGLSPDRIPDGRDGAVNGWPLWVWDRAYAEVS	-2.89
HMGQQTVEPLSRRELEVLSLLAKGLSNQQIADRLVISVRTVKKHVENIHGKLGVQSRTQAVARARELGLV	0.122
HMRDPFDALSARERAVASLVQRGLRNKEVASELGLTEGTVKVHLHKVFDKLGIRGRTELILLAQER	-0.79
HMQPGDRVDALIVGVSGEHVFLDVGGKSEGVMAAAELRNEAGELSAAEGDRVQVYLLSNRNGELIFTA	0.00616
HMNTVSPAVSAQLRQELGGELNNANFQQLQQYLQAGQRDEAIVYLTSLGIESPRAVSIVNNAMDQIG	0.124
HMEGFKSVYFLTTPSGAEISDRSVGDIISKTPSLVSAQEGTEFEFNLKGYQPSFYMINKRSPDRVFVELIP	-0.535
HMGLKQADFEELASRIFTVLEEKSMTPAEIVRKLNLEPDRISIVIQYLLDEGKLNIKDGFINNSA	-0.107
HMNSNIIKTINDELSIRKGKYGPYIMYKTKKMKRPKFKSIGDNTPDEFLADKGSISEIILWIN	-0.444
HMMTLEESYKLLQVSHNASDIEITKAFKKLALLYHPDKNPSNIDWANKAMASINVAYNTIITHRFKEK	-0.628
HMETLSKVGSTGSEVRQIQTKLKNWGYFSDKVDGIYGEKTRAAVVWFQKKNGLTADGIAGPATLKAMGIYT	-0.171
HMTVVPNIVNQPEAAGTNLLISSNLKPGNRAVQYSDTVKAGDIISQSPEPGAQATLGGKVDYVISQGPAPT	0.165
HMPSTKDGIKEFLSSGAMKGIGRKTASAIVSRFGIDTLKIIEQEPQRLTEVSGIGKKTAQRIAEAFGKH	-0.103
HMRNPLYAQVADYVMQQIAAGTYRPHQAIPTEWQLAKKLEVSQGTVRKGLDELVFKQILYRQQGVGTFVAD	-1.19
HMKPDIETQLKKYRYKVSVSKKIKPYMVFSDKTLSELLTKSPTNLKELEDINGFGPVKVQEYGAAILEILK	-0.777
HMEGLESVVPDLRGKSLKSAAIAAGLSGFALSPEGSGIVYKQSPAPGGRYLKGTLIAVWLRT	-0.513
HMAFYQDIAVDLRKQIIDGVYPKNSRLPNQAELAKLYTTSRVTIQKALKILQIEGLIEGRQGSGSYVKGP	-1.42
HMQKAEQIGSLLREKRKSMGLTQDELAQQVEVRRQTLADLELGKNVGSHLLIKVMEHLGVGFDLL	-0.192
HMQNSPVFAASDIEDIRVGMTVEHQRFGQGRVMSIEGNGPNKKTTVLFEGIGEKQLLLQYAKLKIV	0.157
HMSIGLEELVGSHGEAITDLRPAGQVSIAARRISAVSEGDFINKGDSVEVLSVEGYRVMVRKLET	0.00441

Sequence	soluble fraction (log2)
HMKIDNIIIYITGGVKKEGVYELPDGSRISDAIEQAEGLKANADTSSINLAYKLEDGMKIKIPLQGEN	-0.0298
HMGANSAYMAMRDRIQQRLLAELSPGVTRSDTAEVRRVVERIFNETTAELGLPLSRLERNDIFDLVLADIL	-0.792
HMAVVIPDVKGMTIEEAAPFLAEKGIRYNIIDSVFSKDVDPGAIVEIVPTPGSKVKEGRIVFVTINAK	-0.538
HMGIQQNHMTLHARSVASSANVPAEHFDTLVEKLIESGDIKVWKAREILMNLSRQHEEILDES	0.0119
HMGNRQEQVRIIRDLWRQLADAGQPVPAKHLTLDLDALDATQLTKLEDQAHGWLAKLSAQADLADAA	-0.0488
HMKTQFGTIVKQLRERKGMDQKQLGEIVGVSDKTVSSWEINRTEPKMGIVQQLADYFGVSTDYLIKG	0.295
HMNGYGALVRLGRSRGWVTVEEINDHLPESAVRTAENVQEITEALGRLSIKVFETRPDEDDLLIT	-0.0632
HMDLTIEQTTVLGKRLFSNALNSLGKKQRNIKKDAIESLLKRMNLKDMDQLYESIGIGDKSPLLMAQILL	-0.0296
HMNATLSSSYPTSVVTDGEIYKLTFGLNGKYNGQEQITVKPHGDSNIYDSGGLRAYQNTQSNNVVTLN	0.1
HMQKFLEATGENRDAAVENALEQLGLERDDVSVEVLEIGKKGFLGIGATPARVRVTYEAPDI	-0.0313
HMNILAPFWERFGLSAFAAGNYDRAEGYFRKLEQKDPNSMSVLRNLGLILMAKGDAEGAEAYLLREEKL	-0.67
HMKKDNLKKIKSIDEDIENELFKLGIYHFEQISIWSSKNAEWIENFLNLPNYVRANQWVEQAKILK	-1.47
HMTGQVASMVERLAQRLKDQPQDAEGWAMLARSYSVLGRHPEALQAYEKALALRKDDANLLADYADSLA	-0.087
HMRAGEAVTGQVIGVKEDEIILSIAGSKSEGIITRSEFTNEPNVDLTTKVSVGDELEVKVLKVNDGEGMAS	-0.171
HMVTLPLLKRGHTGLPVKALQTLLVLRGMSVDVDGSFGEKTESAVRTFQTAAKILSDGEVGKDTWKALI	-1.43
HMWSLLVILQLREGGQRFSQLQRAIPDISQRMLTQTLRKLERDGLVSRKVTPSTPPRVDYAITELGH	-1.04
HMNFTVTDKNAVLYSNDNTKVYESPDINSKLVTTIAKDLPVNVTGITSNGWFRISLEGTYYVPGNGLEQR	0.141
HMEVEADEFQQLLRSGEYVQALDRARANQDIGLRQQQIVQIARHQAASGIQAGAMGSLASLYQF	0.0182
HMQNNTIAFSKFLQEVDNGRVVQVEIQGNNINGILSDGSKFNTYSPNYPALVEKLSEKNVNIVASPV	0.0149
HMSIITLFQEINAAVAEATGGRVPESVVQNFILGKDVVIPEDVKEIIISKLKAFATDIEGMLEESGFD	-0.909
HMEHGQWLSEAQGASLAADWLARRRGVLPLNARRHLSGLSDQIARQIEGGLSREAGLYTAHEMMESLDP	-0.224
HMQMSDTAAIGKIVDEVFAENPAALEDYAKGKTNVVDWLTGQVMKKSRGQANPGIASELVQKRLADF	0.122
HMFNKTKVPNFIDMNYYEEIEGNSEYDKFNFADPITKNDDTKAPGTVIDQTPEKGTRIDEEKTVIQLTIA	-0.102

Sequence	soluble fraction (log2)
HMYLYHDLSDEAKAMGDEYVSVEHLVLALIRYPNNAVKELFREFGITRERFLQVLSTIRGNQRVTSDNPEA	0.0309
HMEPAPPPAAPPADPELQKRIDKLVEYIGKNGPEFEAVIRDKQHDNPDYAFVFGGEGHAYYRYLLWLLPRP	0.00294
HMPGDIRKAAILLMSLPREQAAQVLARLDPKQVEAVTIEIARLGTVTPDEQEQALKEFSQANPA	0.0798
HMHPELSDSQRTLIALMASGLKDEAIAVEMGVGARTVRRKVQELYELLGVRTRFQAGVAANQRGW	-1.79
HMNATQLSNTQKQIRTQLLERLSNNPLTVKQLADRMFVPIDTILKEITALIQEQKIIEDKGGKLQIN	0.0217
HMNTKQRTAVMRILKQSSDPVSADDVFAALKDEYPSLALSTVYRNLERFADESMVKKDVWSDGIVRYSLAD	-0.189
HMAFRWQQIADTITSMIANGSYPRGSRLPTEAALADSFGVNRHTVRRAVAALRDTGLVQPRQGAGVFVIG	-1.55
HMTSHSFVITEEVGQRLDRFISDQLDTVSRTMIQKHIRSGAVVVNGKQVKSNYLLVLNDRINIALK	-2.64
HMTENQKNIDLIKIVSLLVHAAKIDENYTNKEKELIINFINNFSKENKQNIKSSEILEEAEKYEK	0.0572
HMVAMLDASYRGVMQTISTLLAQGNTERAYDEAVNARGQMSKQQWNNLANLIWERTGQKIDSGVSYK	0.139
HMESIGANIRRLRKERNMSQDELARKAFTNRSNINRYESGKMVPSADTTEKIEEALGVPAGTLAQ	0.132
HMSPEWTPAEQDAIDKASEGEYGEALQRVLSGDYEPMDIPDALWGVQQVADKDTYSSIQKKIADIGN	0.42
HMVDIQTGQKVRIHTSQFAGKIGNITALNVKSAELPNGIRTATASILMQSNENVMLPVSNFDIIE	0.0434
HMPSPEMLKETEKRKAEEIYRSQINLFIDDYHRLKGQYPLLEDIIDNKKDSIPIEILREISISILKNYFE	-0.242
HMKGYIGESKARNIALKKAPGASITKFEFDKDDGIAVYEVELRKGIYEYELKINAVTGAIIEFEKDIE	-1.46
HMEDYTPLQELGLKARYIELLEKGGIFSVEDLVQKSVDDLKDIDGIGEKTAKEIWEIVDSMVDF	-0.137
HMQTMNKTNISNFEKYLNSGDVSEVIVVRNKSSVRVTLTPEALRSSEHQAVVGKNILGQENIKGPHYQFEV	-0.0672
HMTDMYLTYQELRHLGVSQNLISMWKSRKSIDFHMLGGTLYVRYMSIPEQTRSKLALQNVERVYNSRE	-2.55
HMKIDNPEYQKIMDMIPYFFQTRNYDEAIEALSYVIEQEPSFSEAYNKRATFYFMMGDFENSMKDIESTLA	-0.155
HMTENLELLATGSLWTEPDGSGKIISYLIPGLRVKKLETNGIFYKIQLQNGLIGWADQSLFTIAEPK	-0.0642
HMLEDDTVNTAEGIKIGDSFAAVTKAYGTDYVAAGNTYAYSKDKMTLTFVMNNDKVSTISYSLLTS	-0.129
HMTTLLNHLKGTRLEAGLSQQALARLAGISRQAYSALESGSSNPSTEVALRLARALKTSVDHLFSLPE	-0.989

Source: the domain aggregation screens of Martell et al. (2025)
